Data on 24 molecules can be found in paper PMC4224745, “Modulation, Bioinformatic Screening, and Assessment of Small Molecular Peptides Targeting the Vascular Endothelial Growth Factor Receptor” (Cell Biochemistry and Biophysics, 2014).

One assay relates to VEGFR. The assay is described as follows: In vitro receptor competition binding assay with 125I-VEGF165 on A549 cells. To be noted: for IC50: A549 cells, peptide 0–6,500 nmol/L, 30 min at 4 °C, then 125I-VEGF165 0.37 μg/L for 2 h at 4 °C, γ-counter, duplicate wells, read-out: IC50, competitive VEGFR binding with 125I-VEGF; for Fold increase in affinity for VEGFR relative to VEGF125–136: from the IC50 values of the 125I-VEGF competition on A549 cells. Also on record: species or system human. How it is done:
A549 cells were cultured in 24-well culture plates at 3 × 10^4 cells/well in duplicate for each treatment. Cultures were maintained at 37 °C in a 5 % CO2 incubator. After 24 h, the culture supernatant was discarded, and cells were washed in PBS, followed by the addition of serum-free culture medium (Hyclone, Logan, UT) before performing an in vitro competitive-binding assay. To each well, VEGF125–136 or optimized peptides were added at the following concentrations: 0, 1.3, 6.5, 32.5, 65, 650, and 6,500 nmol/L. After a 30-min incubation period at 4 °C, 1.85 kBq ^125I-VEGF165 (PerkinElmer,Boston, MA) at a final concentration of 0.37 μg/L was added to each well, and the plates were further incubated for another 2 h at 4 °C. The culture supernatant was discarded, and the cells were washed twice with pre-cooled (4 °C) PBS containing 0.1 % BSA to remove unbound ^125I-VEGF165. The cells were then trypsin digested and quickly filtered through glass fiber filter paper using a multi-channel microfluidic device. Radioactive counts (cpm) on the filter paper were determined using a γ-counter (Chongqing Optical & Electrical Instrument). Peptide competition binding curves were plotted, and IC50 values for each peptide were calculated using SPSS13.0 statistics software.

The next assay relates to A549 cells. Description: Fluorescence microscopy of rhodamine-conjugated peptides binding to A549 cells. It counts as cell-based, human. The settings on record: rhodamine-conjugated peptides 45 µmol/L, fixed A549 cells, 2 h at 4 °C (method) or 6 h (results). As for the experimental part: The highest affinity peptides, NO.15 (QKRKRKKSRKKH) and NO.17 (RKRKRKKSRYIVLS), were conjugated with a fluorochrome, and fluorescence microscopy was used to observe binding to A549 cells as follows. A549 cells were plated on coverslips and grown overnight. The cells were then washed three times with PBS and fixed with 4 % paraformaldehyde for 15 min at room temperature. The cells were incubated at 37 °C for 30 min with 2 % BSA to block nonspecific binding, and subsequently washed three times with PBS. Rhodamine-conjugated peptides (45 µmol/L) were added and incubated with the cells for 2 h at 4 °C. After three washes with PBS, fluorescence microscopy (maximum absorption wavelength of 552 nm) was used to observe cellular staining. Unconjugated rhodamine was used as staining control.

Assay [1] addresses vascular endothelial growth factor receptor (VEGFR) (human (endogenous in A549), UniProt P17948 27-1338). Description: radioligand binding; competition on A549 cells in 24-well plates, serum-free medium: peptide at 0-6,500 nmol/L for 30 min at 4 °C, then 1.85 kBq 125I-VEGF165 (0.37 μg/L) for 2 h at 4 °C; washed, trypsinised, filtered, γ-counted; IC50 by SPSS13.0. The settings on record: one partner purified.

No end group written: not given here.

Chain of vascular endothelial growth factor receptor (VEGFR) (P17948 27-1338): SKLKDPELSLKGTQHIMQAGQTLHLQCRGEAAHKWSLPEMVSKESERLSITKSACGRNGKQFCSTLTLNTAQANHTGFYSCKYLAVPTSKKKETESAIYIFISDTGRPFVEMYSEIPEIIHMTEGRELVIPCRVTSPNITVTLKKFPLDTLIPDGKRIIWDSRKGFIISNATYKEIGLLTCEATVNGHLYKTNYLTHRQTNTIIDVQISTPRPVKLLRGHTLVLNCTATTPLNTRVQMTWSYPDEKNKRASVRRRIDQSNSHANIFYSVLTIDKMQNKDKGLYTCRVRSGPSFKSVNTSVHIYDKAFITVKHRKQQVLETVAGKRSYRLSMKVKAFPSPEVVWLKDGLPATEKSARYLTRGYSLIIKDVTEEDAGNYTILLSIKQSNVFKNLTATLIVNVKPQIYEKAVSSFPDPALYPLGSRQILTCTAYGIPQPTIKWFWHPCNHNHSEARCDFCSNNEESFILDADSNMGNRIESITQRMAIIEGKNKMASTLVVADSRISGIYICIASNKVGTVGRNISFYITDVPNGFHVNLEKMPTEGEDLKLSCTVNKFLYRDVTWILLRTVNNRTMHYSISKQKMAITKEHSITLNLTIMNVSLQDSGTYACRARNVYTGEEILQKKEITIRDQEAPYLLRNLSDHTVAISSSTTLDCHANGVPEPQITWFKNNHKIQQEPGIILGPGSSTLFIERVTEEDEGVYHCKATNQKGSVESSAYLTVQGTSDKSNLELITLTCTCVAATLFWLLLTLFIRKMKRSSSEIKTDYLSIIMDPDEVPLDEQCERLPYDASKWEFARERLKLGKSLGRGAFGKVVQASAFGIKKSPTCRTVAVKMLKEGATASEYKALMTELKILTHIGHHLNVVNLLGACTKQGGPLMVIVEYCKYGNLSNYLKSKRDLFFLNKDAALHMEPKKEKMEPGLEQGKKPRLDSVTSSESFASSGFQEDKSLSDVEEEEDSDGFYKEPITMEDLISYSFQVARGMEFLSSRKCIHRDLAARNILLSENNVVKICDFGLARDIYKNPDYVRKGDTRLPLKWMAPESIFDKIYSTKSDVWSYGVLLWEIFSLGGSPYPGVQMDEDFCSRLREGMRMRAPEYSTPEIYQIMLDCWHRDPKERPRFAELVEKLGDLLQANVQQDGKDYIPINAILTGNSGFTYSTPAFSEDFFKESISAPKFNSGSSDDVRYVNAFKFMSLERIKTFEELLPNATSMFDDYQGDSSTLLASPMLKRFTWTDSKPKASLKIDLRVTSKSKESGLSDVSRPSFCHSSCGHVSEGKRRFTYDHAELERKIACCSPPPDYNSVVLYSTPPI

The IC50 is the concentration needed to halve the response being measured. Regarding QKRKRKKSRKKH [compound 15], the 50% inhibitory concentration (IC50) in the assay with VEGFR was 0.08 ± 0.007 µM. Besides, in the assay on VEGFR (listed as QKRKRKKSRKKH), the “Fold increase in affinity for VEGFR relative to VEGF125–136” value was 6 fold and ≈ 6 fold. The “Binding sites / fluorescent staining on A549 cells” value in the assay with A549 cells is “plasma membrane and perinuclear cytoplasm”.

Turning to RKRKRKKSRYIVLS [compound 17], in the assay on VEGFR, the IC50 stood at 0.185 ± 0.014 µM and the “Fold increase in affinity for VEGFR relative to VEGF125–136” value turned out to be 2.5 fold. In addition, in the assay with A549 cells, the “Binding sites / fluorescent staining on A549 cells” value is “plasma membrane and perinuclear cytoplasm”. Regarding “rhodamine [unconjugated rhodamine, reference compound]”, the “Binding sites / fluorescent staining on A549 cells” value in the assay with A549 cells is “did not result significant levels of fluorescent staining”. In assay [1], QFRKRKKSRYKS yielded an IC50 of 0.665 ± 0.038 µM. Turning to QKRKRKKSRYKS (also called Control) [VEGF_(125–136)], the IC50 in assay [1] was 0.464 ± 0.012 µM. For QKRKRKKSRKKH (also called NO.15), in assay [1], the IC50 came to 0.08 ± 0.007 µM. For RKRKRKKSRYIVLS (also called NO.17), the IC50 in assay [1] is 0.185 ± 0.014 µM. Regarding QKRKRKKSRYKY, the IC50 in assay [1] is 0.28 ± 0.013 µM. In turn, QKRKRKKSRYPK displayed an IC50 in assay [1] of 0.602 ± 0.019 µM. QKRKRKKSRYKK showed an IC50 in assay [1] of 0.571 ± 0.04 µM. Same read-out and setting: next, QFRKRKKSRYKF: 0.323 ± 0.017 µM; FFRKRKKSRYKS: 0.188 ± 0.025 µM; KFRKRKKSRYIV: 0.273 ± 0.033 µM.

Molecule QFRKRKKSRWKS yielded an IC50 in assay [1] of 0.092 ± 0.009 µM. The molecule QKRKRKKSRYRK showed a half-maximal inhibitory concentration (IC50) in assay [1] of 0.405 ± 0.02 µM. QFRKRKKSRYLS: in assay [1], the IC50 was found to be 0.694 ± 0.029 µM. Turning to KKRKRKKSRKRK, in assay [1], the IC50 was determined as 0.315 ± 0.011 µM. For QKRKRKKSRYPLS, the IC50 in assay [1] was determined as 0.542 ± 0.016 µM. In turn, QHKRKRKKSRIVL returned an IC50 in assay [1] of 0.424 ± 0.037 µM. QFRKRKKSRYKH had an IC50 in assay [1] of 0.252 ± 0.016 µM. With IVFKRKRKKSRYLS, the IC50 in assay [1] amounted to 0.637 ± 0.025 µM. QFRKRKKSRYPK yielded an IC50 in assay [1] of 0.273 ± 0.019 µM. Molecule RKRKRKKSRKKH had an IC50 in assay [1] of 0.283 ± 0.009 µM. QFRKRKKSRYPS came in with an IC50 in assay [1] of 4.21 ± 0.076 µM.
